In US6428997 one finds Kcat/Km, Km and kcat data, which are given here for one protein.

Data set [1] concerns the target T1, leucyl oligopeptide of SEQ ID NO: 2.
T1 chain: LFPTEPS

Data set [2] has as its target T2, methionyl oligopeptide of SEQ ID NO: 1 (Met-Phe-Pro-Thr-Glu-Pro-Ser).
T2 chain: MFPTEPS

B1: Aeromonas proteolytica (Vibrio proteolytica) aminopeptidase (protein)
chain: MPPITQQATVTAWLPQVDASQITGTISSLESFTNRFYTTTSGAQASDWIASEWQALSASLPNASVKQVSHSGYNQKSVVMTITGSEAPDEWIVIGGHLDSTIGSHTNEQSVAPGADDDASGIAAVTEVIRVLSENNFQPKRSIAFMAYAAEEVGLRGSQDLANQYKSEGKNVVSALQLDMTNYKGSAQDVVFITDYTDSNFTQYLTQLMDEYLPSLTYGFDTCGYACSDHASWHNAGYPAAMPFESKFNDYNPRIHTTQDTLANSDPTGSHAKKFTQLGLAYAIEMGSATGDTPTPGNQ
Consider B1, for which, in data set [1], the Kcat/Km is 211000 M⁻¹ s⁻¹, the Michaelis-Menten constant (Km) was 336 µM and the kcat came to 70.3 s⁻¹. For the same protein, in data set [2], the Kcat/Km amounted to 3760 M⁻¹ s⁻¹, the Michaelis-Menten constant (Km) worked out at 956 µM and the kcat came out at 3.23 s⁻¹.

Broadly, the Km is the substrate concentration at which the rate is half of its maximum. The kcat is the maximal rate divided by the concentration of active sites.
